In the DeepSol protein solubility set:

Experiment: soluble on expression in E. coli; label from the status in PepcDB or PDB records

Row | Sequence | soluble on expression in E. coli
1 | MGSDKIHHHHHHMNARVNLNGLGTLHPMTSTRIATGTSGLDTILRGGLPSNRLYLLEGQPGSGKTTLALQFLLEGAAKGESCLYITLSETLDELQEVAQSHGWSLDALHIFELASAEAFLGDGRQQSILHPWELELDGTVKLIQAEVDRVKPQRVVFDSLSELRLLAQDSLRYRRQVLALKQFFAPRNITVLLVDDLTGTSEGRDSHLHSLCHGVVSLERLTLDFGAARRRMQVQKLRGVDFIAGYHDLSILRGGLRIYPRLIASDHHVTFIGDAVSSGVQEVDDLLHGGPLRGTSTLLTGPAGSGKTNLALQYVAAACARGEHCCIFEFDERTGTLLARAESLGLDLRRHLESGLLELRQMDPAELSPGEFAWQVRASVEQRNCRLLVIDSLNGYLSSMPQEKQLMLQMHELLSYLNQSGVTTFLINPQHGLVGTMSTGNLNISYMADTVILFRFFEAQGRIRKALSVIKNRSGAHEDAIRELRIGNSGIRLSAPLNDFHGVLTGTPHFIGDEAPLLGNDLARR | not soluble
2 | MDAVDATMEKLRAQCLSRGASGIQGLARFFRQLDRDGSRSLDADEFRQGLAKLGLVLDQAEAEGVCRKWDRNGSGTLDLEEFLRALRPPMSQAREAVIAAAFAKLDRSGDGVVTVDDLRGVYSGRAHPKVRSGEWTEDEVLRRFLDNFDSSEKDGQVTLAEFQDYYSGVSASMNTDEEFVAMMTSAWQL | not soluble
3 | MLNSEKMIASLDQQDLAHAEKYFQKALKEDDADSLIALGEYLESIGFLPHAKRIYLQLADDYPELNINLAQIAAEDDAIEEAFLYLDKVSKDSPNYLSALLVMADLYDMEGLTEVAREKLLQAVGISPEPLVIFGLAEIDMSLQHFKEAIDYYAQLDNRQILELTGISTYQRIGRAYASLGKFEAAIEFLEKAVAIEYEDETVFELATLMYDQENYQKANLYFKQLETINPDYPGYEYGYALSLHEEHKTSEALRLVQQGLRKNAFDSQLLLLASQLSYELHDRQNAENYLLQAKEVAVDDEEILMRLVTLYFDAERFEEVIALNRETIDNVLTKWTIAKAYHALEQEEVALALYNEISADLAENPEFLQDYAYLLREFGQFHKAIQMATAYLRQVPDDVNMQDFLDHIKHQQSE | not soluble
4 | MSYKGSSIPVCSRISSLYFFSVYLQDLADMEDRTSTSRCSSTTRIKPTKIAGFGTVPLLSSAGTNQSVLSTKSAKSCLSNTIAASMTEPQVSMTQVDRMYEDNLARKKRSMVAVSEFNKIYGQEYHPPSSSESTRSFYENIDAVYPSSKASESSSSSASTGSSDNRKDIEKWEKLDSEAESDIELFIKVSDCFD | not soluble
5 | MGSDKIHHHHHHMSLKDYDAARLAQVREEVTAKYAELKAKNLSLDLTRGKPSAEQLDLSNDLLSLPGGDFRTKDGVDCRNYGGLLGIADIRELWAEALGLPADLVVAQDGSSLNIMFDLISWSYTWGNNDSSRPWSAEEKVKWLCPVPGYDRHFTITEHFGFEMINVPMTDEGPDMGVVRELVKDPQVKGMWTVPVFGNPTGVTFSEQTCRELAEMSTAAPDFRIVWDNAYALHTLSDEFPIVHNVIEFAQAAGNPNRFWFMSSTSKITHAGSGVSFFASSKENIEWYASHANVRGIGPNKLNQLAHAQFFGDVAGLKAHMLKHAASLAPKFERVLEILDSRLSEYGVAKWTSPTGGYFISVDVVPGTASRVVELAKEAGIALTGAGSSFPLHNDPNNENIRLAPSLPPVAELEVAMDGFATCVLMAALEV | not soluble
6 | MAHHHHHHMPHAGNKLVPIGCNMNDAAYPFRGEHRLANCINHGHSGVVKRIPTSIAMRISGSNLVIEEVKTPKGVELECELGVDGGIARPVSLQQASAFMVPSDGHNYNLIAAVKASGNPMKHYCKLTFNGSEGITVLRMRAPEGCSPDAVYIVADGRRLRPTAGWFRIPIHTKECALVANLPLDDAPPPPPPPPPPPPPPPSFSFTATPPLPPAPSGGLAEKTLEATTGAPWTAENVPELETRIHPPLIPNAGAVTLTEPVPAAMPSFVATAPGFSLQLTGENGSSVFGVGVAALPLSHRRAQTVQIVVSDAQGRVLLRQRSHVPSLEPAAVSLAVKDDGKGGLALSANPGSKITVGGVPQADPSATAVLPRVVPQRAVVEQPNADGSVSKATLDVAPTSEPAPVSAAVSKQLPQQPQAPALPEAWVKELSDALQNSNPEEQRHLLQRIYPSSIPGVTIVNFVRDQLTRQPPAISFTVSSNGLEAVQCPGCSVTAAVGNDPARQIPAFGSVALASGKSALLTATSTVRHSAVSACRVQIGVPSAVAFTSPTVSAYPPHAAAGPPMQAGPSADERADSDVVSRLVDCLLRHNLSAPLVARELDSMSTAPFSAQGRRMLSLLTSCLRSATASGAAAAMQAASTQAAAITHAAPEEIFFTCGPGYVDNIYTTQPQYQLFGAVDNQAPQGGAAARPDTCAGYSRG | not soluble
7 | MAYWLFKTEPDTFSIDTLRTQKVSCWEGVRNYQARNMMRDQVKVGDFVLIYHSSCKNVGVAGIAKVVREAYPDHFQFDPESDYYDPKSDPDNPRWIMVDIEFVRKTARVIPLSVMKAMPELENMPLVKRGNRLSIMPVTEDEWEAILGKEKLPSQRLEHHHHHH | soluble
8 | MSLKFMYSALLGNPVEHSISDELFEYLNHNIGVLDEYKHKKILVDSVCLEDKIKHLINDPKCIGLNITLPYKREVMRYIDNLDRVAEITGSVNNIYKSGNIITGTNTDWKGIYNTLVFFNISHITKCCVLGTGGTARAAIFALQKLQISPTVVYREPISENTRSLIKSFPDLKYITYKELADQQILNDMEIIINTTPVGMINYEESLPINFDHLDNVNYKDKYFMDVVFNPLHTKLHEYFGKKGAKIIDGLWVLIFQGIEAFSLWSDKINDGKYFFSKDDVVLIHTFLEGKIKGKEGHHHHHH | soluble
9 | MTDLNRTALPSRTDGTVEKTDTLVVGAGQAGVAMSEHLSRLGVPHLVLERNRIAEAWRSGRWDSLVANGPAWHDRFPGMEFDIDPDGFPGKDQVAAYFEAYAKRFDAPIRTGVEVRKVVRNVGRPGFTVDTSAGTIEANRVVAATGPFQRPVIPPIAPRDERIRQIHSAHYYNPQQLPEGAVLVVGAGSSGVQIADELQRAGRQVYLSVGAHDRPPRSYRNRDFCWWLGVLGEWDAEVAKPGREHVTIAVSGARGGHTVDFRALAHQGVTLVGLTESFVDGVATFRPDLAENLARGDENYLALLDAADAYIARNGLDLPEEPEARRRLPDPQCVTDPILELDLAEAGVGSIIWATGYAVDFGWLQVDAFDRDGKPRHQRGVSSEPGVYFIGLPWLSRRGSSFIWGVWHDARHVADHIAIQRKYLAYRDAAQRQEQDRASQAPQTSLQEVS | not soluble
10 | MENLKNIQPREDFNWEEFEAGGVHAAVSRQEQEAAYDKTLNTIKEKEVVMGRVTAINKREVVINVGYKSEGVVPATEFRYNPELKVGDEVEVYIENQEDKKGQLVLSHRKARAARSWERVNEALEKDEIVKGYVKCRTKGGMIVDVFGIEAFLPGSQIDVRPIRDYDAFVEKTMEFKIVKINQEYKNVVVSHKVLIEAELEQQKKEII | not soluble
11 | MATLIYVDKENGEPGTRVVAKDGLKLGSGPSIKALDGRSQVSTPRFGKTFDAPPALPKATRKALGTVNRATEKSVKTKGPLKQKQPSFSAKKMTEKTVKAKSSVPASDDAYPEIEKFFPFNPLDFESFDLPEEHQIAHLPLSGVPLMILDEERELEKLFQLGPPSPVKMPSPPWESNLLQSPSSILSTLDVELPPVCCDIDILEHHHHHH | not soluble
12 | MGSDKIHHHHHHMDVLQKEIDEVYATHPTAHEALDNGIVEQHQQFVRSLTEVNGGCAVISDLSNRKSYVTVHPWANFLGLTPEEAALSVIDSMDEDCIYRRIHPEDLVEKRLMEYKFFQKTFSMSPGERLKYRGRCRLRMMNEKGVYQYIDNLVQIMQNTPAGNVWLIFCLYSLSADQRPEQGIYATITQMERGEVETLSLSEEHRNILSEREKEILRCIRKGLSSKEIAATLYISVNTVNRHRQNILEKLSVGNSIEACRAAELMKLL | not soluble
13 | MSLSSLEGQENSFTINSVDMKSLPDWTVQNGKNLTLQCFADVSTTSHVKPQHQMLFYKDDVLFYNISSMKSTESYFIPEVRIYDSGTYKCTVIVNNKEKTTAEYQLLVEGVPSPRVTLDKKEAIQGGIVRVNCSVPEEKAPIHFTIEKLELNEKMVKLKREKNSRDQNFVILEFPVEEQDRVLSFRCQARIISGIHMQTSESTKSELVTVTESFSTPKFHISPTGMIMEGAQLHIKCTIQVTHLAQEFPEIIIQKDKAIVAHNRHGNKAVYSVMAMVEHSGNYTCKVESSRISKVSSIVVNITELFSKPELESSFTHLDQGERLNLSCSIPGAPPANFTIQKEDTIVSQTQDFTKIASKSDSGTYICTAGIDKVVKKSNTVQIVVCEMLSEGHHHHHH | not soluble
14 | MRGSHHHHHHGMASMVNTKPEKTEEDSEEVREQKHKTFVEKYEKQIKHFGMLRRWDDSQKYLSDNVHLVCEETANYLVIWCIDLEVEEKCALMEQVAHQTIVMQFILELAKSLKVDPRACFRQFFTKIKTADRQYMEGFNDELEAFKERVRGRAKLRIEKAMKEYEEEERKKRLGPGGLDPVEVYESLPEELQKCFDVKDVQMLQDAISKMDPTDAKYHMQRCIDSGLWVPNSKASEAKEGEEAGPGDPLLEAVPKTGDEKDVSV | soluble
15 | MVTIVWKESKGTAKSRYKARRAELIAERRSNEALARKIALKLSGCVRADKAASLGSLRCKKADECSGSICLPNVAIYAAGYRKSKQLTAR | not soluble
16 | MGSDKIHHHHHHMNELQAILEGFESSQESGEITFLATVVKTQGSTYRRPGAKMFMTNTGRTIGTISAGCLENDVFEYTQQRMSDGKPILVTYDRTASEDILWGFGLGCNGVVQVLIERLERKSIPNAIAFTQECFHKKHLGIIATVFAFEGEVDVELGSRLLLYPNGKIVTDIKDQYLIQSLSADTQAAFVNQKPSVNNYQLPFGSAEVFIEVIQPPTPLVIFGAGYGAVPIAKFAQALGWDVTVVDCRANDTTRARFPLACDVILSNRYIIHKQIFIDVQTIAVVMTHNYLDDLEILKMMLPSPARYIGVLGTKYRTERLLEDLSIKGIVPTSEQLNRLYSPVGIDIGAETPEEIAIAIIAEIQAVLKNRNSNFLKNRNQPIHKSYQDNFNL | not soluble
17 | MGSDKIHHHHHHAAYGEDNHKKERHPDDRKINVGIRGGFNSSMFLVSDLKIKDVTIDEIQNNYKIGYFGALFMRLNMKRHFIQPEISYNISRCEISFDKLGSQHPDIEPDYASVSSTIHSIDFPLLYGYHVVKQGPYTMSLFAGPKLRYLWNKKNKITFENFDQQGIHEKLYPFNVSAVIGVSVNISRIFFDFRYEQGLHNLSKSVTYDNIDMEGRPEVSNITFRRRDNVLSFSLGVIF | not soluble
18 | QWGSMRMPSDRISSGMAFSSVAQEAGFQNDDIILAVDGRPVDALASGFMRSVIQARQVEVLRQGRREIVHVPHDMMKRVLKANSGFMSIQVPFVIDSVMPQGTAYACQLKAGDSITAVNGKLMPDASDVIGAIRSHAGDTIALSIARAGEELTITLPVDTGGLIGVSLRPLDAIYTIDHIRYSLFEAIPAGIAQGMGTMRSYVSDMKYVFTKEGAGQIGGFGTLGSLFPASWNWPQFWAMTALLS | not soluble
19 | MLICNDKSNPKTLLEEIMALRPWRKGPFEISQIKIDSEWDSSIKWDLVKNATPLKDKVVADVGCNNGYYLFKMLEHGPKSLVGFDPGVLVKKQFEFLAPFFDKEKKIIYESLGVEDLHEKYPNAFDVIFCLGVLYHRKSPLEALKALYHALKIKGELVLDTLIIDSPLDIALCPKKTYAKMKNVYFIPSVSALKGWCERVGFENFEILSVLKTTPKEQRKTDFILGQSLEDFLDKTDPSKTLEGYDAPLRGYFKMLKPSKR | not soluble
20 | MKGLKERQDRRLGAFLGLAVGDALGAQVEGLPKGTFPEVREMKGGGPHRLPPGFWTDDTSQALCLAESLLQRGFDPKDQMDRYLRWYREGYRSATGVCFGLGHATRRALERYAATGDPYAGDEAGAGNGPLMRLAPLVLAYENHPDLLSLARRAARTTHGAREALEATEVLAWLLREALRGAPKEALLALEPFRGADLHPALRRVVEGGFWEAPEEGPGYAPGTLAAALWAFARGRDFEEGMRLAVNLGGDADTVGAVYGQLAGAYYGLGAIPGRWLRALHLREEMEALALALYRMSMASPRE | soluble
